Laboratory results: patent US20030099647A1 (Amgen, published 2003)

Molecular target: T1, CHO expressed human interferon gamma (hIFNγ) (human, UniProt P01579 24-161, glycosylated (highly glycosylated form purified))
T1 construct: mature; The form 'mature' is inferred from secretion into conditioned medium; also called hu-IFNγ; hu IFNγ
T1 sequence (looked up): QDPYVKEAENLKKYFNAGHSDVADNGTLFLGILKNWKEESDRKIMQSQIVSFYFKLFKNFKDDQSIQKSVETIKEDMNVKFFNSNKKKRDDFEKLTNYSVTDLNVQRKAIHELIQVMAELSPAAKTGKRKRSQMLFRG
Test: BIAcore neutralization assay; inhibition of hu IFNγ binding to IFNγ-R1

IC50: 9 nM
B1: BS-B IgG (antibody, V domains shown)
VH: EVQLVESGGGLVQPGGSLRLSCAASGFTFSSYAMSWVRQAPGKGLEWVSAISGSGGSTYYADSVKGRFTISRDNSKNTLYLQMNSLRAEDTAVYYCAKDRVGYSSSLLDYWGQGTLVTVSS
VL: NFMLTQPHSVSESPGKTVTISCTRSSGSIASYYVQWYQQRPGSSPTTVIYEDDQRPSGVPDRFSGSIDSASNSASLTISGLQTEDEADYYCQSYDRNSLVFGGGTKLTVLG
notes: The construction is described for BS-A; the others were cloned 'using similar procedures'; The VH limits 1-121 come from the germline comparison legend; also called BS-B full-length human IgG1 antibody; not shown: human IgG1 constant region (CH1, hinge, CH2 and CH3 domains) of plasmid pDSRα19:hIgG1 CH
